# In the RNAGym collection of RNA variant scans (doi:10.7554/elife.80360):
# B1: CPEB3 Ribozyme (parent)
# chain: GGGGGCCACAGCAGAAGCGUUCACGUCGCGGCCCCUGUCAGAUUCUGGUGAAUCUGCGAAUUCUGCUGU
# Variants of: B1
# Experiment: self-cleavage, relative activity (ratio to wild type); higher = more cleavage; co-transcriptional
row,Variant,self-cleavage
1,C24A U62A,0.364
2,C24A U62C,0.402
3,A23U U64A,0.943
4,A23U U64G,0.917
5,C24U U49G,0.762
6,C24U G50A,0.838
7,C24U G50C,0.795
8,C24A A60C,0.283
9,C24A A60G,0.35
10,C24A A60U,0.252
11,G25A A40C,0.178
12,G25A A40U,0.153
13,C24U A40G,0.738
14,C24U A40U,0.317
15,C24U G41A,0.394
16,C24U G41U,0.461
17,A23U U49G,0.936
18,A23U U49C,0.981
19,A23U U49A,1.03
20,C24U G25A,0.212
21,C24U G25C,0.105
22,A23U U69C,1.07
23,A23U U69A,1.03
24,C24U C45A,0.743

row,Variant,self-cleavage
1,C24U C45G,0.776
2,C24A U53C,0.603
3,C24A U53G,0.506
4,C24A U53A,0.537
5,A23U U55C,0.953
6,G25A C63U,0.166
7,G25A A51U,0.166
8,G25A A51G,0.22
9,C24G A59G,0.518
10,C24G A59U,0.225
11,C24G A59C,0.141
12,C24U U53C,0.53
13,C24A A42G,0.53
14,C24A A59U,0.267
15,C24A A59G,0.731
16,C24G U43A,0.348
17,C24G U43C,0.309
18,C24U U44C,0.633
19,C24U U44A,0.687
20,C24U U44G,0.703
21,C24A G47A,0.771
22,C24U U46A,0.852
23,C24U U46C,0.714
24,A23U U53A,0.903

row,Variant,self-cleavage
1,A23U U53C,0.928
2,A23U U53G,0.959
3,C24G G30C,0.128
4,C24G G30U,0.173
5,C24G G30A,0.308
6,C24G G25C,0.152
7,C24G G25A,0.22
8,C24A C66A,0.397
9,C24A C66G,0.493
10,C24A C66U,0.651
11,G25A C54A,0.203
12,G25A C54G,0.208
13,C24A C39A,0.349
14,C24A C39U,0.493
15,C24A C39G,0.682
16,C24U A42U,0.654
17,C24U A42G,0.631
18,C24A G31C,0.132
19,C24A G31U,0.257
20,C24A U36G,0.205
21,C24A U36A,0.173
22,C24U U36G,0.182
23,C24A C63A,0.357
24,C24A C63U,0.699

row,Variant,self-cleavage
1,C24G G37C,0.219
2,C24G G37A,0.131
3,C24G G68A,0.725
4,C24G G68U,0.699
5,C24G C57U,0.241
6,C24G C57G,0.13
7,C24G C57A,0.172
8,C24A U61C,0.374
9,C24A G68A,0.87
10,C24A G68U,0.834
11,C24U G58U,0.879
12,C24U G58C,0.742
13,C24U G48C,0.86
14,C24U G48U,0.889
15,C24U G48A,0.815
16,C24U G30A,0.389
17,C24U G30U,0.199
18,C24A C57G,0.219
19,C24A C57U,0.248
20,C24G A40C,0.198
21,C24G A40G,0.363
22,C24G G48U,0.528
23,A23U U67A,0.975
24,A23U U67G,0.979

row,Variant,self-cleavage
1,A23U U67C,1
2,C24G U46C,0.505
3,C24G U46G,0.471
4,C24G U46A,0.452
5,C24G A52G,0.527
6,C24G C35U,0.261
7,C24G C35G,0.116
8,C24U G56C,0.307
9,C24U G56U,0.528
10,C24U G56A,0.61
11,C24G U55G,0.191
12,C24G U55A,0.36
13,G25A,0.202
14,G25A A59G,0.208
15,G25A A59C,0.157
16,G25A A59U,0.17
17,C24U C29U,0.143
18,C24U C29A,0.292
19,C24U C29G,0.246
20,C24U C57G,0.24
21,C24U C57U,0.244
22,C24G G58A,0.247
23,C24G G58C,0.248
24,C24U C63G,0.328

row,Variant,self-cleavage
1,G25A A42C,0.161
2,G25A A42U,0.178
3,G25A A42G,0.203
4,G25A A60U,0.188
5,G25A A60G,0.171
6,C24U U64C,0.531
7,C24U U64A,0.42
8,C24A U55G,0.289
9,C24U C54U,0.808
10,C24U C54A,0.561
11,C24G U44A,0.514
12,C24G U44C,0.348
13,C24A G41U,0.456
14,C24A G41C,0.299
15,C24A G41A,0.391
16,G25A C27G,0.208
17,G25A C27U,0.169
18,G25A C27A,0.162
19,G25A C35U,0.152
20,G25A C35G,0.18
21,C24G A60U,0.226
22,C24G A60C,0.205
23,C24A U44C,0.628
24,C24A U44G,0.615

row,Variant,self-cleavage
1,C24A U44A,0.705
2,C24G A42G,0.404
3,C24G A42U,0.418
4,C24G U38C,0.413
5,C24G U38G,0.215
6,C24A C45A,0.712
7,C24A C45U,0.751
8,C24A C45G,0.677
9,C24G G56A,0.22
10,C24G G56U,0.299
11,C24U U61C,0.353
12,C24U U61G,0.397
13,C24U U61A,0.431
14,C24A U26G,0.283
15,C24A U26A,0.257
16,C24U G65U,0.352
17,C24U G65A,0.39
18,G25A C66U,0.244
19,G25A C66A,0.196
20,C24G U69C,0.739
21,C24U C35U,0.579
22,C24A U67A,0.751
23,C24A U67G,0.693
